The values that follow come from US20070249061A1 (PROTEOGEN, published 2007).

No end group written: not given here.

First the molecules themselves.
B1: HGLVHK-NH2 (peptide)
peptide: HGLVHK-NH2
notes: also called HGLVHK peptide; peptide number 7
B2: HGDLHK-NH2 (peptide)
peptide: HGDLHK-NH2
notes: also called HGDLHK peptide; peptide number 4
B3: HGDVHK-NH2 (peptide)
peptide: HGDVHK-NH2
notes: also called HGDVHK peptide; peptide number 10
B4: HHLLHK-NH2 (peptide)
peptide: HHLLHK-NH2
notes: also called HHLLHK peptide; peptide number 3
B5: HSDVHK-NH2 (peptide)
peptide: HSDVHK-NH2
notes: also called HSDVHK peptide; peptide number 11

The target in the experiment is T1, integrin αvβ3 (UniProt P06756 31-1048; P05106 27-788).
T1 construct: Heterodimer immobilized on ProteoChip
T1 sequence (P06756 31-1048, chain 1 of 2): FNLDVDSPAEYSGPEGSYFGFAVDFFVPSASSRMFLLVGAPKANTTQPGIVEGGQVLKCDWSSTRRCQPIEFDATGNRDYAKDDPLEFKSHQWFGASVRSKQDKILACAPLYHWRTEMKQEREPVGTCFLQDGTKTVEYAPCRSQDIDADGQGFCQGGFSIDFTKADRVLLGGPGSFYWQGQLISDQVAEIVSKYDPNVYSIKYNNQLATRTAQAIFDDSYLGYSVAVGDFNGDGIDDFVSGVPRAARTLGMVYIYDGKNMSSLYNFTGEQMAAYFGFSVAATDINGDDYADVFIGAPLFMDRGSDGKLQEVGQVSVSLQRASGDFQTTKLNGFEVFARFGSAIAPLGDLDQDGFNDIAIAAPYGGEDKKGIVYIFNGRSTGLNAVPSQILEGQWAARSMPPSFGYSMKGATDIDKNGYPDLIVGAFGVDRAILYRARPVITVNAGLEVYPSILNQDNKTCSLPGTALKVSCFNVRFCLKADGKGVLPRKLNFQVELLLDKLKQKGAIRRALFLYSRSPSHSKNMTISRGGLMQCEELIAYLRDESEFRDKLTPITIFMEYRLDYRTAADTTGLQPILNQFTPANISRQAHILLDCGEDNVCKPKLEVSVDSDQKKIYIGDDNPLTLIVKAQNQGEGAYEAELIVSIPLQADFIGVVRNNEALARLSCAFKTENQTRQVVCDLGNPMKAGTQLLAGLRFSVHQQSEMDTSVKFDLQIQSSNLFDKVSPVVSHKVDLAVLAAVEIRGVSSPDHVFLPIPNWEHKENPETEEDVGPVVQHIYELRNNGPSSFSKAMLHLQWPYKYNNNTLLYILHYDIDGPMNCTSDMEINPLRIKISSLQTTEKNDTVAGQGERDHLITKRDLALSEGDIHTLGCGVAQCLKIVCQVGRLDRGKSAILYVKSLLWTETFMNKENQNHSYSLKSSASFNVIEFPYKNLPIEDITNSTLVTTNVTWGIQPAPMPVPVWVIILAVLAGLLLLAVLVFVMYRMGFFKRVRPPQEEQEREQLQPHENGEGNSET
T1 sequence (P05106 27-788, chain 2 of 2): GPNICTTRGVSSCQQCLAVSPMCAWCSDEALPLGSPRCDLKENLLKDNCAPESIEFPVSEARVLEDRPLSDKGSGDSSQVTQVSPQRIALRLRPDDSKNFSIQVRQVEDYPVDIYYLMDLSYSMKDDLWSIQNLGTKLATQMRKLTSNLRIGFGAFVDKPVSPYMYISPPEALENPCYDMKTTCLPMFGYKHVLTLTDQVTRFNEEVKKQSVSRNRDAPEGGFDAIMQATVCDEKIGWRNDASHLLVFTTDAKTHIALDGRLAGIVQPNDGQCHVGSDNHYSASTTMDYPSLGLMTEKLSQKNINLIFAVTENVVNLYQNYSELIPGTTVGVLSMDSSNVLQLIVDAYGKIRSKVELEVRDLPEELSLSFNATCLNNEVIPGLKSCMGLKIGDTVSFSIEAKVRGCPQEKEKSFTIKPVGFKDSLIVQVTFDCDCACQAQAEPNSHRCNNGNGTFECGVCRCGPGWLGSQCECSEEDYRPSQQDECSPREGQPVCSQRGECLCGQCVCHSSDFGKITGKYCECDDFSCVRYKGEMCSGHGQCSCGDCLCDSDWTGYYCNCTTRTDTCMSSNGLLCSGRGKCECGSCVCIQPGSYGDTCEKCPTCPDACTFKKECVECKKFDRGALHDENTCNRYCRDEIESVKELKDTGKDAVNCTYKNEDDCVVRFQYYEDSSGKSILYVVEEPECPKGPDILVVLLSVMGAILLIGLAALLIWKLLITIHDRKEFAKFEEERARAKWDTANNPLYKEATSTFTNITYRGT
In words: competitive inhibition of integrin αvβ3-vitronectin interaction on protein chip.
Method: After reaction, those were washed for about 10 minutes with 0.5% PBST containing 3% BSA. Competitive inhibitory abilities of antagonists were measured by analyzing the degree of ligand binding as relative fluorescence intensity with a fluorescence scanner.
As to B1, the IC50 (in general, the concentration that inhibits the measured activity by half) was 0.00243 ng/mL.
To B2 belongs 0.0307 ng/mL; to B3, 0.0447 ng/mL; to B4, 0.0034 ng/mL.
The molecule B5 had an IC50 of 0.00174 ng/mL.
To HSLVHK-NH2 (also called peptide number 8) [HSLVHK-NH2] belongs 0.046 ng/mL; to HHLVHK-NH2 (also called peptide number 9) [HHLVHK-NH2], 0.313 ng/mL.
